# Test results taken from the RNAGym collection of RNA variant scans (doi:10.7554/elife.80360).
# B1: Hammerhead Ribozyme (parent)
# chain: ACCGGAUGUGCUUUCCGGUCUGAUGAGUCCGUGAGGACGAAACAG
# Variants of: B1
# Test: self-cleavage, relative activity (ratio to wild type); higher = more cleavage; co-transcriptional
row,Variant,self-cleavage
1,ACCGCAUGUGCUUUCCGGUCUUAUGAGUCCGUGAGGACGAAACAG,0.299
2,ACCCUAUGUGCUUUCCGGUCUGAUGAGUCCGUGAGGACGAAACAG,0.418
3,ACCAGAUGUGCUUUCCGGUCUGAUGAGUCCGUGAGGACGAAACGG,0.84
4,ACCGGAUGUGCUUUCCGGUCUGAUGAGUCCGUAAGGACGAAUCAG,0.27
5,CCCGGAUGUGCUUUCCGGUCUGAUGAGUCCGUGAGGACGCAACAG,0.446
6,ACCGGAUGUGUUUUCCGGUGUGAUGAGUCCGUGAGGACGAAACAG,0.327
7,ACCGGAUGUGCCUUCCGGUCUGAUGAGUCCGUGAGGACGAAGCAG,0.255
8,ACCGGAUGUGCUUUCCGGUCCGAUGAGGCCGUGAGGACGAAACAG,0.703
9,ACCGGAUGUUCUUUCCGAUCUGAUGAGUCCGUGAGGACGAAACAG,0.836
10,ACCGGAUGUGCUUUUCGGUCUGAUGAGUCCGUGAGGACGAUACAG,0.352
11,ACCCGAUGUGCUUUCCGGUCUGAUGAGUCCGUGCGGACGAAACAG,0.679
12,ACCGGAUGUGCUUUCCGGUCUGAUGAGUACGUGAGGACGAAUCAG,0.374
13,ACCGGAUGUGCUUUCCUGUCUGAUGAGUCCGUCAGGACGAAACAG,0.851
14,ACCGGAUGUGCUUUCCGGUCUGAUGAGUCCGUGAGGACGAAGAAG,0.309
15,ACCGGAUGUGUUUUCCGGUCUGCUGAGUCCGUGAGGACGAAACAG,0.277
16,ACCGGAUGUGCAUUCCGGUCUGAUGAGUCCGUGAGGACGAAACUG,0.61
17,ACCGGAUGUGCUUUCCGGUCUGAUUAGUCCGUGAGGCCGAAACAG,0.294
18,ACCGGAUGUGCUUUCCGGUCUGUUGAGUCCGUGAGGACGUAACAG,0.371
19,ACCGGAUGUGCUGUCCGGUCUGAUGAGUCCGUGACGACGAAACAG,0.819

row,Variant,self-cleavage
1,ACCCGAUGUGCUUUCCGGUCUGAUGAGUCCGCGAGGACGAAACAG,0.736
2,ACCGGAUGUGCUUUCCGGUCUGAUGAGUCCAUGAGGACCAAACAG,0.377
3,ACCGGAUGUGCUUUCCGGUCUGUUGAAUCCGUGAGGACGAAACAG,0.32
4,ACCGGAUGUGCUUUCCGGUCUGAUGAGUCCGUGAGGACAAUACAG,0.293
5,ACCGGAUGUGCUUUACGGUCUGAUGAGUCCGUGAGGACGAAAGAG,0.337
6,ACCGGAUGUGCUUUCCGGUCUGAUGAGUUCGUGUGGACGAAACAG,0.603
7,AUCGGAUGUGCUUUCGGGUCUGAUGAGUCCGUGAGGACGAAACAG,0.356
8,ACUGGAUGUGCUUUCCGGUCUGAUGAGUCCGUGAAGACGAAACAG,0.487
9,AACGGAUGUGCUUUCCGGUCUGAUGAGUCCGUGAGGACGAAAAAG,0.333
10,ACCGGAUGUGCUUUCCGGUCUGACGAGUCCGUGAGGACGAAACUG,0.542
11,ACCGGAUGUGCUUUCCGGUCUGAUGAGUCCAUGAGAACGAAACAG,0.603
12,ACCGGAUGUGCUUUCCGGUCUGAGGAGUCCGCGAGGACGAAACAG,0.858
13,ACCGCAGGUGCUUUCCGGUCUGAUGAGUCCGUGAGGACGAAACAG,0.611
14,ACCGGAUGUGCUUUCCGGUAUGAUGAGUCCGUGAGGACGCAACAG,0.33
15,ACCGGAUGUGCUUUCCGGGCUGAUGAGUCCGUGAGGACGAUACAG,0.342
16,ACCGGAUGUGCUUUCCGGUCUGAUGAUUCCGUGGGGACGAAACAG,0.373
17,ACCCGAUUUGCUUUCCGGUCUGAUGAGUCCGUGAGGACGAAACAG,0.353
18,ACCGGAUGUGCUAUCCGGUUUGAUGAGUCCGUGAGGACGAAACAG,0.681
19,ACCGGAUAUGCUUUCCGGCCUGAUGAGUCCGUGAGGACGAAACAG,0.489

row,Variant,self-cleavage
1,ACCGGAAGUGCCUUCCGGUCUGAUGAGUCCGUGAGGACGAAACAG,0.79
2,ACCGGAUGUGCUUUCCGGUCUGAUGAGUCCGCGCGGACGAAACAG,0.95
3,ACCGGAUGUGCUUUCCGGUCUGAUGAGUACGUAAGGACGAAACAG,0.816
4,ACCGGAUGUGCUUUCCGGUCUGAAGAGUCCGUGAAGACGAAACAG,0.873
5,ACCGGAUGUUCUUGCCGGUCUGAUGAGUCCGUGAGGACGAAACAG,0.709
6,ACAGGAUGUGCUUUCCGGUCUGACGAGUCCGUGAGGACGAAACAG,0.94
7,ACCGGAGGUGCUUUCCGGUCUGAUCAGUCCGUGAGGACGAAACAG,0.363
8,ACCGGAUGUGCUUUCCGGUCUGAUGAGUCCGUGCGGACGUAACAG,0.419
9,ACCGGAUGUGCUUUCCGGUCUGAUGCGUCCGUCAGGACGAAACAG,0.559
10,ACCGGAUGUGCUUUCCGGUCUGAUGACUCCGUGAGGACGAAAAAG,0.291
11,ACCGGAUGUGCUUUCCGGUCUGAUGAGUCCGUGAGGACGCAACAA,0.431
12,AUCGGAUGUGCUUUCCGGUCUGAUGAGUCCGUGAGGACGAUACAG,0.365
13,AUCGGAUGUGCUUUCCGGUCUGAUGAGUCCGUGAGGACGACACAG,0.35
14,ACCGGAUGUGCUUUCCGGUCUUAUGAGUCCGUGAGGACGAAAGAG,0.348
15,ACCGGAUGUGCUUUCCGGUCAGAUGAUUCCGUGAGGACGAAACAG,0.294
16,ACCGGAUGUGCUUUCCCGUCUGAUGAGUCCGUGAGCACGAAACAG,0.246
17,AUCGGAUGUGCUUUCCGGUCUGAUGAGUGCGUGAGGACGAAACAG,1.02
18,ACCGGAUGUUCUUUCCGGUCUGAUGACUCCGUGAGGACGAAACAG,0.861
19,ACCGGAUGUGCUUUGCGGUCUGAUAAGUCCGUGAGGACGAAACAG,0.348
